Test results reported in the supplement of paper PMC9170038.

Test system: MS2 coat protein
Assay: apparent KD of MS2 coat protein; higher = weaker reporter binding
Settings: Eterna round: R107
Method in brief: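 In 100 mM Tris-HCl pH 7.5 with 80 mM KCl and 4 mM MgCl2, and without or with constant ligand, SNAP-549-labelled MS2 coat protein was titrated in twofold steps from 0.7 or 1.5 nM to 3 µM. Per-step times went from 0.8–1.5 h down to 10–20 min. The RNA switches were transcribed on-chip from Illumina sequencing clusters, and apparent KD is the per-design median of normalised cluster binding-curve fits.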

[1] = input ligand: theophylline 20 uM
[2] = input ligand: tryptophan 2.4 mM
[3] = input ligand: theophylline 2 mM

Sequence	apparent KD of MS2 coat protein (input ligand: arginine 13.2 mM) [nM]	apparent KD of MS2 coat protein [1] [nM]	apparent KD of MS2 coat protein [2] [nM]	apparent KD of MS2 coat protein [3] [nM]	apparent KD of MS2 coat protein (input ligand: none) [nM]
CUUAUAGUAACUGAUACCAGUGUACUGACAUGAGGAUCACCCAUGUUGGGUUUUGUUGUACACCCUUGGCAGCAGAAUCUAUAAG [AstrosExyTheB#10]	49.2	65.7	58.8		
GACAUGAGGAUCACCCAUGUAUUGGGUGAUACCAGCCUGAAUCAUGGCCCUUGGCAGCACCGCGCUAACUUUAUGUUUGCGAACC [Mavegeceri]	95	210	56.5		
GACAUGAGGAUCACCCAUGUUUUCUAUGAAGGAGCGUCGGAAAUGACAGGUAGGUCGCAUGGUAGGACUUGUAUCUUGUAUGUAG [EAA NP+V+V2 #10]	13.4	16.2	15.5	14.7	
GACCGAUUAUAGUGCGAUUGUCUUGUGGAAGGAGCGCAGAGGACUGCAGGUAGGUCGCCACAUGAGGAUCACCCAUGUCAGGAUU [Reinorlaan]	39.8	45.1	40.5	64.8	46
GACGAUAUGAUACGUCAGCAAUCCUCGAAACGAGGACCGGUACGGCCGCCACUCGAGUGAUACACAUGAGGAUCACCCAUGUACC [Tryp A Ex t3]	30.9	49.6		49.4	
GAGGAAACUCACAUGAGGAUCACCCAUGUACGAGGACCGGUACGGCCGCCACUCGAAACCAUGGGCGGUAGUACGUGGAAGCUUG [Design 2 MOD 2]	21.1	31.3		23.8	
GAGGGUGAAUCUCUGGUCCGUUUGACGGAUACCAGCGAGAGGUAUCGCCCUUGGCAGCCGACGACAUGAGGAUCACCCAUGUUAA [#08 Exclusion-TheophyllineA]	18.9	30.4	18		
GAUGAACUAUUUGAUACCAGACCACAUGAGGAUCACCCAUGUGAGUUUCGUCCUUAGCCGGUCCCUUGGCAGCAAAUAGUUUAUC [#27 Exclusion-TheophyllineB]	19.3	24.1	16.7		
GAUGAAGUAACUGAUACCAGUGUACUGACAUGAGGAUCACCCAUGUUGGGUUUUGUUGUACACCCUUGGCAGCAGAAUCUUUAUC [AstrosExyTheB#5]	33.8	60.8	45.8		
GCACAUGAGGAUCACCCAUGUAUUACUGAAGGAGCGAGACAGAACUCAGGUAGGUCGCAGACUGCACAAUUGCGGACGACAUGGG [Exclusion Arginine A GF22]	14.6	41	34.3	31.2	31.5
GCACCAGGUACGGAUACCAGACGUUGCCAAUUGGGUGCACAUGAGGAUCACCCAUGUUCUGUCCCUUGGCAGCCGUACCUGGUGC [EThB NP+V+V2 #5]	10.2	13.5	9.12	73.2	10.1
GCACCAGGUACGGAUACCAGCUGCCCGAGAUACAUGAGGAUCACCCAUGUGACCUGAUUUAGCCCUUGGCAGCUGUACCUGGUGC [SSThB NP+V+V2 #1]	148	189	285	55.9	333
GCACCAGGUACGGAUACCAGCUGCUCGAGAUACAUGAGGAUCACCCAUGUGACCUGGUUUAGCCCUUGGCAGCUGUACCUGGUGC [#15 Same State - Theophylline B]	16.4	15.3	17.2		
GCAUCCUAGUCGGCCGCCACUGCAACAUGAGGAUCACCCAUGUCUGUAUGUGAUCCAUGCAGUAGCAGGACCGGGACUAGGAUGC [(T1)-(M1)-(M2)-(T)''-(M)'-(T)'-(T2)_Design3_2/18/17]	237	467		833	
GCAUCCUAGUCGGCCGCCACUGCAAUUGUAAUACUGCUACAUGAACAUGAGGAUCACCCAUGUAGCAGGACCGGGACUAGGAUGC [(Trp1)-(TM)''-(TM)'-(Ms2)-(Trp2)_Design9]	80.4	185		222	
GCAUCCUAGUCGGCCGCCACUGCAGUAGCACCUGCUACAUGGAAACAUGAGGAUCACCCAUGUAGCAGGACCGGGACUAGGAUGC [(Trp1)-(TM)''-(TM)'-(Ms2)-(Trp2)_Design8]	44.3	733	236	909	276
GCCAUCGGCGGAAGCCGAUGGUAUACGGAAGGAGCGCACGAAAGUGCAGGUAGGUCGCUGAACAUGAGGAUCACCCAUGUAAUAA [#28 Same State - Arginine A]	17.6	36.4	20.3	24.1	18.8
GCCUCCAGCCGAAGGAGCGCUAGAAGGUGACAUGAGGAUCACCCAUGUGUGUGAUGUGGCUAGCAGGUAGGUCGCGGAGGAGGUU [Exclusion - Arginine B (Freestyle 20)]	62.7	133	89.8	120	68.5
GCGAUGGAGCGAAGGAGCGGCUAUCACCGACAAAACAUGAGGAUCACCCAUGUUGGCAGUGGCCAGGUAGGUCGCGCUCCAUCGC [EAB NP+V+V2 #8]	8.17	12.3	8.57	10.8	11.4

Sequence	apparent KD of MS2 coat protein (input ligand: arginine 13.2 mM) [nM]	apparent KD of MS2 coat protein [1] [nM]	apparent KD of MS2 coat protein [2] [nM]	apparent KD of MS2 coat protein [3] [nM]	apparent KD of MS2 coat protein (input ligand: none) [nM]
GCUAGGUCAUCGGCCGCCACUAACGAAGGUUCGAACAUGAGGAUCACCCAUGUGCCACAUGCGCAUAGGACCGGGAUGACCUAGC [SSTB NP+V+V2 #7 +-Same Structure]	13.8	26.2	11.4	20.8	17.3
GCUAGGUCAUCGGCCGCCACUAACGAUGGCUCCAACAUGAGGAUCACCCAUGUGCCACAUGCGCAUAGGACCGGGAUGACCUAGC [SSTB NP+V+V2 #3]	11.3	16.2		14.1	
GCUGCCAUACGAAGGAGCGCUGCUGCGAUGUGGCGAACAUGAGGAUCACCCAUGUGGCAGCAGCAGGUAGGUCGCGUAUGGCAGC [#01 Exclusion - Arginine B]	131	489	198	259	144
GCUGUAAGUGCAGAUACCAGCAGGUGAUAUUUCUAAUGACAUGAGGAUCACCCAUGUAACUGCCCUUGGCAGCUGCACUUACAGC [SSTHB #8]	48.5	32.1	59.6		
GCUUGGGUGGCCCAGCCCUGGCAGGGCGAUACCAGCACGGUAACGUGCCCUUGGCAGCGCACAUGAGGAUCACCCAUGUGGUGCG [#1 Exclusion - Theophylline A Attempt #27 (HarryS)]	52.8	161	112		
GCUUGGGUGGCCCAGCCCUGGCAGGGCGAUACCAGCCCGGUAACGGGCCCUUGGCAGCGCACAUGAGGAUCACCCAUGUGGUGCG [#1 Exclusion - Theophylline A Attempt #28 (HarryS)]	22.4	60.3	44.9	85	52.4
GGACUAACCAGAAGGAGCGACACGCAGAAACUGCAAAAUCCUCCGCACGAGGAUCACCCGUGUCAGGUAGGUCGCUGGUUAGUCG	38.6	63.6	49.7	60.2	54.3
GGACUAACCAGAAGGAGCGACACGCAGAAACUGCAAAUUCCUCCGCACGAGGAUCACCCGUGUCAGGUAGGUCGCUGGUUAGUCG [ArgBX 28]	22.9	33.2	22.4	23.5	19.4
GGACUAACCAGAAGGAGCGGCACAAAGCAGAAACUGCAUCCUCCGCACGAGGAUCACCCGUGUCAGGUAGGUCGCUGGUUAGUCG [ArgBX 28]	46.2	70.6	62	69.5	57.5
GGACUCGUCACGGCCGCCACUGCGGUGGUGUGACAUGAGGAUCACCCAUGUUGUCAUGCGGCCCUUAGGACCGGGUGUCGCUUCC [#1 Exclusion - Tryptophan B Attempt #24 (HarryS)]	124	221		336	
GGAGCUACGUCGGCCGCCACUAGCGGUUAUUACGUGUACAUGAGGAUCACCCAUGUAAUAUGGCUUAGGACCGGGACGUAGCUCC [Wolverine]	21	29		27.8	
GGAUAGAUAGGAGAUACCAGACACAUUAACAUGAGGAUCACCCAUGUGUCUGCACUAAGUGUCCCUUGGCAGCUCGGAGAUCUGA [Same State - Theophylline B]	34.2	44.2	31.9	30.6	45.9
GGAUAGGACACGGCCGCCACUAGCUAGGAUACUAGCAACAUUUCCUCACUUGAGGAUCACCCAAGUAGGACCGGGUGUCCUAUCG	95.2	250	182	160	162
GGAUAGGACACGGCCGCCACUGCCUAGGAUACUAGAAACAUUUCCUCACAUGAGGAUCACCCAUGUAGGACCGGGUGUCCUAUCG	74.9	161		121	
GGAUAGGACAGAAGGAGCGACAUCGCCGAAAGGCUGGUAAGAUCACAUGAGGAUCACCCAUGUCAGGUAGGUCGCUGUCCUAUCG [ArgXB 11 #Zipper #MS2Left #StaticStem #Blueprint]	92.2	360	308	627	283
GGAUAGGACAGAAGGAGCGACAUGAGGAUCACCCAUGUCUACCACGUCGAAAGACGCUCAUGUCAGGUAGGUCGCUGUCCUAUCG [ArgXB 9 #StaticStem #MS2LeftOffAptamer]	101	191	113	183	153
GGAUAGGACAGAAGGAGCGACAUGAGGAUCACCCAUGUCUACUAGGACGAAAGUCCGUCAUGUCAGGUAGGUCGCUGUCCUAUCG [#29 Exclusion - Arginine B]	68.8	103	81.2	114	88.7
GGAUAGGACAGAAGGAGCGACAUGCGACGAAAGUCGAAAAGAUCACAUGAGGAUCACCCAUGUCAGGUAGGUCGCUGUCCUAUCG [ArgXB 10 #Zipper #MS2Left #StaticStem #Blueprint]	119	115	89.9	154	127
GGAUAGGACAGAAGGAGCGACGUGAGGCGAAAGCCAAUCCUUCAACAUGAGGAUCACCCAUGUCAGGUAGGUCGCUGUCCUAUCG [ArgBX 5]	19.5	26.4	22.5	22.3	20.9
